Measurements: FireProtDB (doi:10.1021/bi972395d)
Where “and” joins values, the source holds several entries; their conditions need not be identical. Equal entries are not always repeated.

B1: Superoxide dismutase [Mn], mitochondrial, P04179 (parent)
chain: MLSRAVCGTSRQLAPVLGYLGSRQKHSLPDLPYDYGALEPHINAQIMQLHHSKHHAAYVNNLNVTEEKYQEALAKGDVTAQIALQPALKFNGGGHINHSIFWTNLSPNGGGEPKGELLEAIKRDFGSFDKFKEKLTAASVGVQGSGWGWLGFNKERGHLQIAACPNQDPLQGTTGLIPLLGIDVWEHAYYLQYKNVRPDYLKAIWNVINWENVTERYMACKK

Variants of: B1
Details: Homo sapiens; pH 7.8; 70 °C; Thermal; DSC; potassium phosphate 2 mM; transition: 2; reversible: Yes; structure 1N0J; whole UniProt chain shown

Variant | ddG of mutation (higher = less stable) [kcal/mol]
Q167N | -2.79

Same assay, conditions: Homo sapiens; pH 7.8; 88.9 °C; Thermal; DSC; potassium phosphate 2 mM; transition: 2; reversible: Yes; structure 1N0J; whole UniProt chain shown

Variant | ddG of mutation (higher = less stable) [kcal/mol]
Q167N | -0.06

Same assay, conditions: Homo sapiens; pH 7.8; Thermal; DSC; potassium phosphate 2 mM; transition: 2; reversible: Yes; structure 1N0J; whole UniProt chain shown

Variant | unfolding enthalpy (calorimetric)
Q167N | 100 kcal/mol and 78.3 kcal/mol
